In patent US20260132208A1 (DOMAIN THERAPEUTICS, published 2026):
Each block holds one binder with its values, some of them ahead of it.

How the values were obtained:
human CCR8 [1] = target: T1, human CCR8 (human, UniProt P51685 1-355); assay: cell-based or functional assay
human CCR8 [2] = target: T1, human CCR8; assay: cell-based or functional assay; remark: listed apart in the source
[3] = target: T2, human CCR8 with a SNAP-tag at the N-terminus (human, UniProt P51685 1-355, SNAP-tag labelled covalently with Lumi4-Terbium); assay: HTRF Tag-lite, inhibition of hCCL1-AF647 binding to SNAP-hCCR8 on HEK-293 cells
T2 construct: also called hCCR8 SNAP-tag; CCR8 SNAP-tag
Description: The inhibition of CCL1 binding to hCCR8 was evaluated with the Tag-Lite® technology from Cisbio (Revvity). Human CCR8 is engineered with a SNAP-tag at the N-terminus of the GPCR. hCCR8 SNAP-tag is transiently transfected on HEK-293 cell line using FuGene® (Promega, Madison, WI, USA). 48 hours after transfection, cells are labeled with the substrate Lumi4-Terbium® (Cisbio, Codolet, France) which covalently reacts with the SNAP-tag, for 1 h at 37° C. Thawed or freshly labeled cells are plated in a 384 low volume white plate (GREINER Bio-One, Courtaboeuf, France) (10000 cells/well/10 μl). […] The Kd was previously obtained in a saturation binding assay on the same cells. […] The plate is next incubated at 21° C. for 2 h. Detection of HTRF signal is performed on the multiplate reader EnVision (PerkinElmer, Waltham, MA, USA). The HTRF (665/620) ratio is calculated by EnVision software, the data exported are considered as the total binding. The specific binding is calculated then by subtracting the non-specific signal from the total binding. The Ki and IC₅₀ are calculated using the “One site-Fit Ki” and “One site-FitlogIC50” from GraphPad Prism 9 (Graphpad Software, San Diego, CA, USA), respectively.

ADCC % max lysis, HUT78 targets, NK donor 3 (human CCR8 [1]): 16% | ADCC % max lysis, HUT78 targets, NK donor 4 (human CCR8 [1]): 19% | ADCC EC50, HUT78 targets, NK donor 3 (human CCR8 [1]): 0.349 nM | ADCC EC50, HUT78 targets, NK donor 4 (human CCR8 [1]): 1.91 nM
B1: anti-CCR8 mAb 1-25 (antibody, human IgG1, kappa, V domains shown)
VH: QVQLVESGGGVVQPGRSLRLSCAASGFTFSNYRMHWVRQAPGKGLEWIAVIKVKSDNYGANYADSVKGRFTISRDNSKNTLYLQMNSLRAEDTAVYYCSSPTYPGSSGFAYWGQGTLVTVSS
VL: DIQMTQSPSSLSASVGDRVTITCRASQDISNYLNWYQQKPDGTVKLLIYYTSRLHTGVPSRFSGSGSGTDYTLTISNLQQEDIATYFCQQGNKFPPTFGGGTKVEINR
notes: Humanized mAb, human IgG1 / kappa

IC50 (read off the curve), inhibition of hCCL1 induced Gi2 signaling, No Wash-out (human CCR8 [2]): ~0.02 µg/mL | IC50 (read off the curve), inhibition of hCCL1 induced Gi2 signaling, Wash-out (6 h) (human CCR8 [2]): ~0.06 µg/mL
B2: anti-CCR8 mAb 1-20 (antibody, human IgG1, kappa)
heavy: not shown
light: DIVMTQAAPSLSVTPGESASISCTSSKSLLHSNGNTYLYWFLQKPGQSPQLLIYRMSNLASGVPDRFSGSGSGTAFTLKISRVEAEDVGVYYCMQHREYPFTFGSGTKLEIKRTVAAPSVFIFPPSDEQLKSGTASVVCLLNNFYPREAKVQWKVDNALQSGNSQESVTEQDSKDSTYSLSSTLTLSKADYEKHKVYACEVTHQGLSSPVTKSFNRGEC
notes: as for B1

IC50 [3]: 0.1 to 1 nM
B3: anti-CCR8 mAb 1-22 (antibody, human IgG1, kappa, V domains shown)
VH: EVQLLESGGGLVQPGGSLRLSCAASGFTFNAYAMNWVRQAPGKGLEWVARIRSKSNDYATYYGDSVKGRFTISRDNSKNTLYLQMNSLRAEDTAVYYCVRGREAYYRYDGGYYAMDVWGQGTTVTVSS
VL: DIVMTQSPLSLPVTPGEPASISCRSSKSLLHSNGNTYLYWFLQKPGQSPQLLIYRVSNLASGVPDRFSGSGSGTDFTLKISRVEAEDVGVYYCMQHREYPFTFGQGTKLEIKR
notes: as for B1
